In assay [1] the target is T1, human CD70 expressed on the surface of cells (human, UniProt P32970 1-193).
T1 construct: whole, on cells; also called cell surface expressed CD70; CD70 on cells
T1 sequence (looked up): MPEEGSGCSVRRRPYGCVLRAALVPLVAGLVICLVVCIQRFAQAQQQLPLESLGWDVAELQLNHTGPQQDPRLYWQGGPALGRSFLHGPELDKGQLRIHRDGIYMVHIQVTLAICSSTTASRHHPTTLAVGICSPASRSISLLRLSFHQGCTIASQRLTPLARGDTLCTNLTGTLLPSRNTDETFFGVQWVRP
Put plainly: FACS MFI at 37 C, Caki-1 cells; reference SGN70. As for the experimental part: (§1) Several cancer cell lines were tested by FACS analysis for binding of ARGX-110 and SGN70 (described in US2010/0129362) at saturating mAb concentrations (at least 2 μg/ml). This was either done at 4° C. (1 hour incubation of cells with mAbs) or at 37° C. (15 minutes incubation of cells with mAbs). Binding was detected using anti-hIgG1-Fc-FITC (AF006, Binding Site) or anti-hIgG1-Fc-PE antibody (eBioscience, 12-4998). Fluorescence was measured using a flow cytometer.

In assay [2] the target is T2, human-mouse CD70 chimera chim-1 (Flag-TNC-CD70) (Homo sapiens (Human), UniProt P32970 58-193, Soluble homotrimer held by the TNC domain; one CD70 ECD chain is given.).
T2 construct: also called chimera 1; not shown: N-terminal Flag tag, TNC (tenascin-C) trimerisation domain and any linkers of the Flag-TNC-CD70 construct
T2 chain: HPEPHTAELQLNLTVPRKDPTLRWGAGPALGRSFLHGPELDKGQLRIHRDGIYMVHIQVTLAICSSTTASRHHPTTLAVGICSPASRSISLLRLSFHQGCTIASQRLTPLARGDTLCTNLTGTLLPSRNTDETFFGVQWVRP
Put plainly: ELISA; chimera captured by anti-Flag mAb; anti-human-Fc-HRP. Here is the method:
(§2) A Maxisorb (Nunc) microtiter plate was coated with 3.5 μg/ml mouse M2 anti-Flag mAb (Sigma Aldrich, F3165) and the different chimeras were captured. A dilution series of the CD70 mAbs to be tested was applied starting at a concentration of 10 μg/ml and making 3-fold dilutions. After 2 hours, binding was detected using anti-human-Fc-HRP at a 16000-fold dilution. Staining was done with ABTS and OD at 405 nm was measured. As a positive control, CD27-Fc was applied which is able to bind to both human and mouse CD70 with good affinity as well as to the chimeric human-mouse CD70 variants.
(In general: An ELISA detects its analyte on a solid surface through an enzyme-linked reagent.)

Assay [3] addresses T3, human-mouse CD70 chimera chim-2.3 (Flag-TNC-CD70).
T3 construct: also called chimera 2.3
T3 chain: T2 chain with L35T, D41E, K42E, Q44H, R49Q, I52L
The assay is described as above. Here is the method:
as §2

Assay [4] concerns the target T4, human-mouse CD70 chimera chim-2.4 (Flag-TNC-CD70).
T4 construct: also called chimera 2.4
T4 chain: T2 chain with L35T, D41E, K42E, Q44H, R49Q, I52L, M54R, V55L
Described as above. As for the experimental part:
as §2

Assay [5] has as its target T5, human-mouse CD70 chimera chim-2.1 (Flag-TNC-CD70) (Soluble homotrimer held by the TNC domain; one CD70 ECD chain is given.).
T5 construct: also called chimera 2.1; not shown: N-terminal Flag tag, TNC (tenascin-C) trimerisation domain and any linkers of the Flag-TNC-CD70 construct
T5 chain: T2 chain with L35T
The description is as above. As for the experimental part: as §2

The target of assay [6] is T6, human-mouse CD70 chimera chim-2.2 (Flag-TNC-CD70).
T6 construct: also called chimera 2.2; not shown: N-terminal Flag tag, TNC trimerisation domain and any linkers of the Flag-TNC-CD70 construct
T6 chain: T2 chain with L35T, D41E, K42E, Q44H
The description is as above. As for the experimental part:
as §2

Assay [7] addresses T7, cynomolgus monkey CD70 on HSC-F cells (cynomolgus monkey, UniProt A0A2K5WTU9 1-190).
T7 construct: whole, on cells; also called cynomolgus CD70
T7 sequence: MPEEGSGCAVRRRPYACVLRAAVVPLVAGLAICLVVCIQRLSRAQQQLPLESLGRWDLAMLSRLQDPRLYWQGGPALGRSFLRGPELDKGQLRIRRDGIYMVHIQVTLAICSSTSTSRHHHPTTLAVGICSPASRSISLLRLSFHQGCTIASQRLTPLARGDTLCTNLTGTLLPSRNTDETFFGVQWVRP
Briefly: flow cytometry on cynomolgus HSC-F cells, goat anti human IgG1 FITC [panel cynomolgus monkey]. For orientation: Flow cytometry measures light scatter and fluorescence of single cells or particles in a stream.

Assay [8] deals with T1, human CD70 expressed on the surface of …. Put plainly: flow cytometry on U266 cells, 1 h at 4 °C, anti-hIgG1-Fc-FITC or anti-hIgG-Fc-PE [panel U266]. As for the experimental part:
[…] This was either done at 4° C. (1 hour incubation of cells with mAbs) or at 37° C. (15 minutes incubation of cells with mAbs). Binding was detected using anti-hIgG1-Fc-FITC (AF006, Binding Site) or anti-hIgG1-Fc-PE antibody (eBioscience, 12-4998). Fluorescence was measured using a flow cytometer.

Assay [9] concerns the target T8, rhesus recombinant CD70 (FLAG-TNC-rhesus CD70) (rhesus).
T8 construct: also called rhesus Flag-TNC-CD70
Put plainly: blocking ELISA; rhesus Flag-TNC-CD70; competitor CD27-Fc.

Assay [10] has as its target T1, human CD70 expressed on the surface of …. Briefly: FACS MFI at 37 C, U87MG cells; reference SGN70. Here is the method:
as §1

Assay [11] shares this target. Put plainly: FACS MFI at 37 C, SU-DHL-6 cells; reference SGN70. Here is the method: as §1

Positions count from the first letter of the chain named.

B1: ARGX-110 (non-fucosylated 41D12 human IgG1) (antibody, V domains shown)
VH: EVQLVESGGGLVQPGGSLRLSCAASGFTFSVYYMNWVRQAPGKGLEWVSDINNEGGTTYYADSVKGRFTISRDNSKNSLYLQMNSLRAEDTAVYYCARDAGYSNHVPIFDSWGQGTLVTVSS
VL: QAVVTQEPSLTVSPGGTVTLTCGLKSGSVTSDNFPTWYQQTPGQAPRLLIYNTNTRHSGVPDRFSGSILGNKAALTITGAQADDEAEYFCALFISNPSVEFGGGTQLTVLG
notes: also called 41D12 (ARGX-110)
By EC50 is commonly meant the concentration needed to bring the measured effect to its halfway point. As a reminder, the EC50 (read off the curve) is the concentration needed to bring the measured effect to its halfway point. In general, IC50 refers to the point on the concentration scale where inhibition reaches its midpoint. With B1, the figures for the “Signal in FACS of ARGX-110/signal in FACS of SGN70” value in assay [1], in assay [10] and in [11] were 1.9 ratio, 2 ratio and 2.4 ratio, respectively. Further, the EC50 in assay [2] was 0.027 µg/mL; in assay [3], 0.015 µg/mL; in [4], 0.014 µg/mL; in assay [5], 0.015 µg/mL; in assay [6] it was 0.016 µg/mL. Further, the “EC50 (read off the curve)” value was roughly 0.08 µg/mL in [7] and roughly 0.1 µg/mL in assay [8]. In addition, in [9], the IC50 came to 0.075 µg/mL.

Source of the values: US20150266963A1 (ARGEN X B V, published 2015).
